Measured values as given in publication PMC11969024 (2025).

B1: peptide HD2 (from tick evasin EVA4) / CCL11 (biotinylated, synthetic) (parent complex)
chain 1: EEDDYTAYAPLTCYFT
chain 2: not shown

Variants of: B1
With chain 1 T16S the enrichment was 1.18 log2 (difference from the parental peptide).
In the case of chain 1 T16R, the enrichment is reported as -1.09 log2 (difference from the parental peptide).
In the case of chain 1 T16P, the enrichment is reported as 1.77 log2 (difference from the parental peptide).
With chain 1 T16G the enrichment was 1.39 log2 (difference from the parental peptide).
For chain 1 T16M, the enrichment was 0.752 log2 (difference from the parental peptide).
For chain 1 T16F, the enrichment was -0.46 log2 (difference from the parental peptide).
For chain 1 T16E, the enrichment was 2.21 log2 (difference from the parental peptide).
chain 1 T16H was tested, and the enrichment was 0.297 log2 (difference from the parental peptide).
chain 1 T16Y was tested, and the enrichment was -0.239 log2 (difference from the parental peptide).
In the case of chain 1 T16V, the enrichment is reported as 0.462 log2 (difference from the parental peptide).
In the case of chain 1 T16N, the enrichment is reported as 0.695 log2 (difference from the parental peptide).
For chain 1 T6V, the enrichment was -3.9 log2 (difference from the parental peptide).
With chain 1 T6A the enrichment was 1.96 log2 (difference from the parental peptide).
In the case of chain 1 T6L, the enrichment is reported as -2.13 log2 (difference from the parental peptide).
For chain 1 T6Q, the enrichment was 0.834 log2 (difference from the parental peptide).
In the case of chain 1 T6E, the enrichment is reported as 3.27 log2 (difference from the parental peptide).
For chain 1 T6Y, the enrichment was -1.69 log2 (difference from the parental peptide).
In the case of chain 1 T6D, the enrichment is reported as 3.92 log2 (difference from the parental peptide).
For chain 1 T6F, the enrichment was -4.68 log2 (difference from the parental peptide).
chain 1 T6H was tested, and the enrichment was -0.677 log2 (difference from the parental peptide).
For chain 1 T6W, the enrichment was -0.511 log2 (difference from the parental peptide).
In the case of chain 1 T6R, the enrichment is reported as -0.866 log2 (difference from the parental peptide).
With chain 1 T6G the enrichment was 2.76 log2 (difference from the parental peptide).
With chain 1 T6S the enrichment was 2.88 log2 (difference from the parental peptide).
With chain 1 T6K the enrichment was -1.28 log2 (difference from the parental peptide).
chain 1 A7Y was tested, and the enrichment was -0.616 log2 (difference from the parental peptide).
In the case of chain 1 A7Q, the enrichment is reported as 2.3 log2 (difference from the parental peptide).
With chain 1 A7G the enrichment was -1.16 log2 (difference from the parental peptide).
With chain 1 A7T the enrichment was -0.43 log2 (difference from the parental peptide).
In the case of chain 1 A7V, the enrichment is reported as -0.751 log2 (difference from the parental peptide).
With chain 1 A7H the enrichment was -0.338 log2 (difference from the parental peptide).
For chain 1 A7I, the enrichment was -0.213 log2 (difference from the parental peptide).
In the case of chain 1 A7L, the enrichment is reported as 0.532 log2 (difference from the parental peptide).
With chain 1 E2P the enrichment was -2.92 log2 (difference from the parental peptide).
With chain 1 E2N the enrichment was -2.1 log2 (difference from the parental peptide).
In the case of chain 1 E2Q, the enrichment is reported as -1.08 log2 (difference from the parental peptide).
In the case of chain 1 E2K, the enrichment is reported as -3.4 log2 (difference from the parental peptide).
chain 1 Y5E was tested, and the enrichment was 0.188 log2 (difference from the parental peptide).
With chain 1 Y5C the enrichment was -5.28 log2 (difference from the parental peptide).
With chain 1 Y5V the enrichment was -5.26 log2 (difference from the parental peptide).
For chain 1 Y5D, the enrichment was -3.62 log2 (difference from the parental peptide).
For chain 1 Y5T, the enrichment was -4.78 log2 (difference from the parental peptide).
chain 1 Y5W was tested, and the enrichment was 1.88 log2 (difference from the parental peptide).
In the case of chain 1 Y5L, the enrichment is reported as -2.37 log2 (difference from the parental peptide).
For chain 1 Y5P, the enrichment was -7.31 log2 (difference from the parental peptide).
In the case of chain 1 E1Q, the enrichment is reported as -0.591 log2 (difference from the parental peptide).
With chain 1 E1P the enrichment was -1 log2 (difference from the parental peptide).
chain 1 E1I was tested, and the enrichment was -0.709 log2 (difference from the parental peptide).
In the case of chain 1 E1W, the enrichment is reported as -3.15 log2 (difference from the parental peptide).
With chain 1 E1K the enrichment was -2.4 log2 (difference from the parental peptide).
In the case of chain 1 E1V, the enrichment is reported as -1.08 log2 (difference from the parental peptide).
For chain 1 E1R, the enrichment was -2.69 log2 (difference from the parental peptide).
With chain 1 E1A the enrichment was -0.354 log2 (difference from the parental peptide).
For chain 1 E1H, the enrichment was -1.51 log2 (difference from the parental peptide).
In the case of chain 1 E1N, the enrichment is reported as -0.236 log2 (difference from the parental peptide).
chain 1 E1L was tested, and the enrichment was -1.42 log2 (difference from the parental peptide).
chain 1 E1M was tested, and the enrichment was -0.0601 log2 (difference from the parental peptide).
In the case of chain 1 C13T, the enrichment is reported as -6.48 log2 (difference from the parental peptide).
In the case of chain 1 C13V, the enrichment is reported as -5.2 log2 (difference from the parental peptide).
In the case of chain 1 C13N, the enrichment is reported as -8.78 log2 (difference from the parental peptide).
chain 1 C13H was tested, and the enrichment was -9.22 log2 (difference from the parental peptide).
In the case of chain 1 C13I, the enrichment is reported as -6.17 log2 (difference from the parental peptide).
With chain 1 C13P the enrichment was -6.72 log2 (difference from the parental peptide).
In the case of chain 1 C13E, the enrichment is reported as -8.19 log2 (difference from the parental peptide).
In the case of chain 1 C13L, the enrichment is reported as -6.8 log2 (difference from the parental peptide).
For chain 1 C13A, the enrichment was -8.03 log2 (difference from the parental peptide).
chain 1 C13G was tested, and the enrichment was -8.69 log2 (difference from the parental peptide).
chain 1 D3T was tested, and the enrichment was -2 log2 (difference from the parental peptide).
chain 1 D3S was tested, and the enrichment was -2.82 log2 (difference from the parental peptide).
For chain 1 D3Y, the enrichment was -0.781 log2 (difference from the parental peptide).
In the case of chain 1 D3C, the enrichment is reported as -10.5 log2 (difference from the parental peptide).
With chain 1 D3H the enrichment was -2.18 log2 (difference from the parental peptide).
For chain 1 D3W, the enrichment was -3.25 log2 (difference from the parental peptide).
For chain 1 D3G, the enrichment was -2.94 log2 (difference from the parental peptide).
With chain 1 D3R the enrichment was -4.57 log2 (difference from the parental peptide).
With chain 1 D3L the enrichment was -3.39 log2 (difference from the parental peptide).
In the case of chain 1 D3N, the enrichment is reported as -2.05 log2 (difference from the parental peptide).
With chain 1 D3V the enrichment was -3.65 log2 (difference from the parental peptide).
For chain 1 D3P, the enrichment was -3.5 log2 (difference from the parental peptide).
In the case of chain 1 D3A, the enrichment is reported as -2.56 log2 (difference from the parental peptide).
With chain 1 D3E the enrichment was 1.42 log2 (difference from the parental peptide).
chain 1 D3K was tested, and the enrichment was -4.93 log2 (difference from the parental peptide).
With chain 1 D3Q the enrichment was -4.56 log2 (difference from the parental peptide).
For chain 1 D4M, the enrichment was -3.45 log2 (difference from the parental peptide).
For chain 1 D4A, the enrichment was -3.23 log2 (difference from the parental peptide).
With chain 1 D4N the enrichment was -2.87 log2 (difference from the parental peptide).
In the case of chain 1 D4R, the enrichment is reported as -6.08 log2 (difference from the parental peptide).
With chain 1 D4Q the enrichment was -3.06 log2 (difference from the parental peptide).
chain 1 D4V was tested, and the enrichment was -4.79 log2 (difference from the parental peptide).
chain 1 D4H was tested, and the enrichment was -5.76 log2 (difference from the parental peptide).
With chain 1 D4E the enrichment was -0.216 log2 (difference from the parental peptide).
chain 1 L11D was tested, and the enrichment was -6.85 log2 (difference from the parental peptide).
With chain 1 L11K the enrichment was -0.948 log2 (difference from the parental peptide).
With chain 1 L11P the enrichment was -8.67 log2 (difference from the parental peptide).
chain 1 L11A was tested, and the enrichment was -0.668 log2 (difference from the parental peptide).
For chain 1 L11C, the enrichment was 1.22 log2 (difference from the parental peptide).
chain 1 L11G was tested, and the enrichment was -5.15 log2 (difference from the parental peptide).
In the case of chain 1 L11M, the enrichment is reported as 2.06 log2 (difference from the parental peptide).
chain 1 L11H was tested, and the enrichment was 0.483 log2 (difference from the parental peptide).
In the case of chain 1 L11W, the enrichment is reported as -0.874 log2 (difference from the parental peptide).
With chain 1 Y8M the enrichment was -6.75 log2 (difference from the parental peptide).
chain 1 Y8C was tested, and the enrichment was -9.26 log2 (difference from the parental peptide).
In the case of chain 1 Y8S, the enrichment is reported as -6.51 log2 (difference from the parental peptide).
With chain 1 Y8L the enrichment was -9.35 log2 (difference from the parental peptide).
For chain 1 Y8F, the enrichment was 1.62 log2 (difference from the parental peptide).
With chain 1 Y8I the enrichment was -9.96 log2 (difference from the parental peptide).
With chain 1 Y14A the enrichment was -6.29 log2 (difference from the parental peptide).
In the case of chain 1 Y14M, the enrichment is reported as -2.62 log2 (difference from the parental peptide).
With chain 1 Y14E the enrichment was -7.34 log2 (difference from the parental peptide).
chain 1 Y14W was tested, and the enrichment was -0.519 log2 (difference from the parental peptide).
chain 1 Y14Q was tested, and the enrichment was -4.82 log2 (difference from the parental peptide).
chain 1 Y14L was tested, and the enrichment was -3.46 log2 (difference from the parental peptide).
With chain 1 Y14I the enrichment was -2.68 log2 (difference from the parental peptide).
chain 1 Y14N was tested, and the enrichment was -4.02 log2 (difference from the parental peptide).
chain 1 Y14G was tested, and the enrichment was -8.75 log2 (difference from the parental peptide).
For chain 1 T12C, the enrichment was -6.12 log2 (difference from the parental peptide).
With chain 1 T12Y the enrichment was -1.75 log2 (difference from the parental peptide).
With chain 1 T12E the enrichment was -1.39 log2 (difference from the parental peptide).
chain 1 T12M was tested, and the enrichment was -1.76 log2 (difference from the parental peptide).
chain 1 T12H was tested, and the enrichment was -1.8 log2 (difference from the parental peptide).
chain 1 T12Q was tested, and the enrichment was -1.12 log2 (difference from the parental peptide).
chain 1 T12G was tested, and the enrichment was -9.29 log2 (difference from the parental peptide).
chain 1 T12V was tested, and the enrichment was -0.494 log2 (difference from the parental peptide).
chain 1 T12L was tested, and the enrichment was -0.794 log2 (difference from the parental peptide).
chain 1 T12A was tested, and the enrichment was -2.95 log2 (difference from the parental peptide).
For chain 1 T12I, the enrichment was -1.03 log2 (difference from the parental peptide).
In the case of chain 1 P10E, the enrichment is reported as -7.48 log2 (difference from the parental peptide).
chain 1 P10Q was tested, and the enrichment was -3.8 log2 (difference from the parental peptide).
For chain 1 P10L, the enrichment was -9.08 log2 (difference from the parental peptide).
In the case of chain 1 F15T, the enrichment is reported as 1.13 log2 (difference from the parental peptide).
chain 1 F15P was tested, and the enrichment was -0.525 log2 (difference from the parental peptide).
In the case of chain 1 F15G, the enrichment is reported as -2.42 log2 (difference from the parental peptide).
With chain 1 F15I the enrichment was 0.05 log2 (difference from the parental peptide).
chain 1 F15H was tested, and the enrichment was -0.581 log2 (difference from the parental peptide).
For chain 1 F15L, the enrichment was 0.0745 log2 (difference from the parental peptide).
In the case of chain 1 F15S, the enrichment is reported as 0.275 log2 (difference from the parental peptide).
With chain 1 F15Y the enrichment was 0.26 log2 (difference from the parental peptide).
For chain 1 F15W, the enrichment was -1.47 log2 (difference from the parental peptide).
For chain 1 F15E, the enrichment was 0.713 log2 (difference from the parental peptide).
For chain 1 F15M, the enrichment was 0.54 log2 (difference from the parental peptide).
chain 1 F15C was tested, and the enrichment was -4.03 log2 (difference from the parental peptide).
chain 1 A9K was tested, and the enrichment was -4.4 log2 (difference from the parental peptide).
chain 1 A9W was tested, and the enrichment was -5.62 log2 (difference from the parental peptide).
chain 1 A9Q was tested, and the enrichment was -0.313 log2 (difference from the parental peptide).
With chain 1 A9P the enrichment was -8.38 log2 (difference from the parental peptide).
With chain 1 A9I the enrichment was -10.6 log2 (difference from the parental peptide).
For chain 1 A9N, the enrichment was -5.15 log2 (difference from the parental peptide).
In the case of chain 1 A9L, the enrichment is reported as -7.13 log2 (difference from the parental peptide).
In the case of chain 1 A9T, the enrichment is reported as -3.11 log2 (difference from the parental peptide).
In the case of chain 1 A9G, the enrichment is reported as -4.51 log2 (difference from the parental peptide).
